The series in a line: yeast display, Sf9 membrane polyspecificity reagent, FACS + sequencing; frameworks hold sequencing errors. Put shortly:
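Sorting gates, low and high (top ~1%), were placed on anti-HA fluorescence to track expression and on streptavidin fluorescence to track reagent binding. A clone's polyreactivity label is taken from the gate it came out of. The reagent was 10% biotinylated, detergent-solubilized Sf9 membrane, applied for 1 hour at 4 °C to galactose-induced yeast display cells.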
Take “QVQLVESGGGLVQAGGSLRLICAASGSIITGYPMGWYRQAPGKERELVAGINSGTSTNFADSVKGRFTISRDNAKNTVFLQMNSMKPEDTAVYYCAKTAERRHYGVYRFDYWGQGTQVTVSS”: the “polyreactivity (PSR sort gate)” value is given as “low polyreactivity”.

Take “QVQLVESGGGLVQAGGSLRLICAASGSILDGNTMGWYRQAPGKERELVAAITWDGTSTYFADSVKGRFTISRDNAKNTVYLQMNSLKPEDTAVYYCAATKGYSDPSTGYYAYIHYDYWGQGTQVTVSS”: the “polyreactivity (PSR sort gate)” value was “low polyreactivity”.

Consider “QVQLVESGGGLVQAGGSLRLICAASGSILSTYAMGWYREAPGKERELVADISGRVGSTYYADSVKGRFTISRDNAKNTDYLQMNSLKPEDTAVYYCAAALDYWPGYEYYYWGQGTQVTVSS”, for which the “polyreactivity (PSR sort gate)” value is “low polyreactivity”.

As to “QVQLVESGGGLVQAGGSLRLICAASGSISYYNAMGRYRQAPGKERELVADITSGGGTYYADSVMGGFTISRDNAKNTVFLQMNSLKPEDTAVYYCAKDYGFTGYGYWGQGTQVTVSS”, the “polyreactivity (PSR sort gate)” value is “low polyreactivity”.

Take “QVQLVESGGGLVQAGGSLRLICAASGSNFVGYAMGWYRQAPGKERELVAAISRTGASTYYADSVKGRFTISRDNAKNTVYLQMNSLKPEDTAVYYCAYYYSIYDYWGQGTQVTVSS”: the “polyreactivity (PSR sort gate)” value is listed as “high polyreactivity”.

On to “QVQLVESGGGLVQAGGSLRLICAASGSTFASYAMGWYRQAPGKERELVAAITRRGGSTYYADSVKGRFTISRDNAKNTVYLQMNSLKPEDTAVYYCAAKWTPATYKFDYWGQGTQVTVSS”, for which the “polyreactivity (PSR sort gate)” value is recorded as “high polyreactivity”.

In the case of “QVQLVESGGGLVQAGGSLRLICAASGSTFELYAMGWYRQAPGKEREFVAAITYDSTYYADSVKGRFTISRDNAKNTVYLQMNSLKPEDTAVYYCAAAYWHYYYGWDMYYWGQGTQVTVSS”, the “polyreactivity (PSR sort gate)” value is listed as “high polyreactivity”.

As for “QVQLVESGGGLVQAGGSLRLICAASGSTFEYSTMGWYRPAPGKERELVAAINSSGGRTYYADSVKGRFTISRDNAKNTVYLQMNSLKPEDTAVYYCNARWRSGPRAYDYWGQGTQVTLSS”, the “polyreactivity (PSR sort gate)” value is given as “high polyreactivity”.

As to “QVQLVESGGGLVQAGGSLRLICAASGSTFFDYAMGGYRQAPGKEREFVADIYSNGGSTYYADSVKGRFTFSRDNAKNSVYLQMNSLKPEDTAGYYCAAVLRPRQGRRYDYWGQGTQVTVSS”, the “polyreactivity (PSR sort gate)” value is listed as “low polyreactivity”.

As for “QVQLVESGGGLVQAGGSLRLICAASGSTFFSYAMGWYRPAPGKERQLVAAITRSGGSTYYADSVKGRFTISRDNAKNTVFLQMNSLKPEDTAVYYCNADLGIGYDYWGQGTHVTVSS”, the “polyreactivity (PSR sort gate)” value is listed as “high polyreactivity”.

On to “QVQLVESGGGLVQAGGSLRLICAASGSTFGPNGMGWYRQAPGKERELVARIDRIGGGTYYADSVKGRFTISRDNAKNTVYLQMNSLKPEDTAVYYCAADGPSPFIQGYAKGDYWGQGTQVTVSS”, for which the “polyreactivity (PSR sort gate)” value is on record as “low polyreactivity”.

On to “QVQLVESGGGLVQAGGSLRLICAASGSTFGPYDMGWYRQAPGKERELVADITSGGSTYYADSVKGRFTISRDNAKNTVYLQMNSLKPEDTAVYYCAADRVWPYYQYDYWGQGTQVTVSS”, for which the “polyreactivity (PSR sort gate)” value is on record as “low polyreactivity”.

Turning to “QVQLVESGGGLVQAGGSLRLICAASGSTFGRNAMGWYRQAPGKERELVAAITASGGTTYYADSVKGRFTISRDNAKNTVYLQMNSLKPEDTAVYYFARAGHFSFKYDYWGQGTQVTVSS”, the “polyreactivity (PSR sort gate)” value is “low polyreactivity”.

Regarding “QVQLVESGGGLVQAGGSLRLICAASGSTFGWYAMGWYRQAPGQERELVAAISWGGGSTYYADSVKGRFTISRDNAKNTVYLQMNSLKPEVTAVYYCAKVPLTYSRSGYEYDYWGQGTQVTVSS”, the “polyreactivity (PSR sort gate)” value is “low polyreactivity”.

With “QVQLVESGGGLVQAGGSLRLICAASGSTFHTYAMGWYRQAPGKERELVATITWDGGRTYYADSVKGRFTISRDNAKNTVYLQMNSLKPEDPAVYYCAADYWSIEMDYWGQGTQVTVSS”, the “polyreactivity (PSR sort gate)” value was “low polyreactivity”.

As to “QVQLVESGGGLVQAGGSLRLICAASGSTFKRYAMGWYRQAPGKERELVAAISLSSGSTYYADSVKGRFTISRDNAKNTVYLQMNSLKPEDTAVYYCNAAKTYPDVYEYDYWGQGTQVTVSS”, the “polyreactivity (PSR sort gate)” value is “high polyreactivity”.

In the case of “QVQLVESGGGLVQAGGSLRLICAASGSTFKYNAMGWYRQAPGKERELVAAISSGGSTNYADSVKGRFTISRDNAKNTVYLQMHSLKPEDTAVYYCNAAYNYVTPWYFYWGQGTQVTVSS”, the “polyreactivity (PSR sort gate)” value is “high polyreactivity”.

Consider “QVQLVESGGGLVQAGGSLRLICAASGSTFQDNAMGWYRQAPGKERELVASISSVDSTNYADSVKGRFTISRDNAQNTVYLQMNSLKPEDTAVYYCNAAHPYRRVGSFTYKYDYWGQGTQVTVSS”, for which the “polyreactivity (PSR sort gate)” value is given as “low polyreactivity”.

For “QVQLVESGGGLVQAGGSLRLICAASGSTFRHYAMGWYRQAPGKERELVAAIRRSGGTTYYADSVKGRFTISRDNAKNTVYLHMNSLKPEDTAVYYCAARLTVRKLVRFDYWGQGTQVTVSS”, the “polyreactivity (PSR sort gate)” value is “low polyreactivity”.

Take “QVQLVESGGGLVQAGGSLRLICAASGSTFSAYVMGWYRQAPGKERKLVAAITRSGVSTYYADSVKGRFTISRDNAKNTVYLQMNSLKPEDTAVYYCARRAKGAYWNEYNYWGQGTQVTVSS”: the “polyreactivity (PSR sort gate)” value is on record as “high polyreactivity”.

Consider “QVQLVESGGGLVQAGGSLRLICAASGSTFTRYAMGWYRQAPGKERELVAAINSSGGRTYYADSVKGRFTISRDNAKNTVYLQMNSLKPEDTAVYYFAATRGRYREDEDYWGQGTQVTVSS”, for which the “polyreactivity (PSR sort gate)” value is reported as “high polyreactivity”.

For “QVQLVESGGGLVQAGGSLRLICAASGSTFTRYAMGWYRQAPRKERELVAAISRGGSTNYADSVKGRFTISRDNAKNTVYLQMNSLKPEDTAVYYCAAARYRYYLGFGYDYWGQGTQVTVSS”, the “polyreactivity (PSR sort gate)” value is listed as “high polyreactivity”.

Consider “QVQLVESGGGLVQAGGSLRLICAASGSTFYSNAMGWYRQAPGKERELVAAINYSGGGTYYADSVKGRFTISRDNAKNTVYLQMNSLKPEDTAVYYCAADGSYVHWEYGYWGQGTQVTVSS”, for which the “polyreactivity (PSR sort gate)” value is listed as “low polyreactivity”.

For the sequence “QVQLVESGGGLVQAGGSLRLICAASGSTFYSYAMGWYRQAPGKERELVAVISWSGGSTYYADSVKGRFTISRDNAKNTVYLQMNSLKPEDTAVYYCAAESYYSDDWYYAYYYWGQGTQVTVSS”, the “polyreactivity (PSR sort gate)” value is “high polyreactivity”.

In the case of “QVQLVESGGGLVQAGGSLRLICAASGSTIGGYVMGWYRQAPGKERELVAAISRSGASTYYADSVKGRFTISRDNAKNTVYLQMNSLKQEDTAVYYCAAYQARGMDYWGQGTQVTVSS”, the “polyreactivity (PSR sort gate)” value was “high polyreactivity”.

“QVQLVESGGGLVQAGGSLRLICAASGSTIGSYVMGWYRTAPGKERELVAAITSGARTNYADSVKGRFTISRDNAKNTVYLQMNSLKPEDTAVYYCAKYYRPAYVYRIAGYYWGQGTQVTVSS”: the “polyreactivity (PSR sort gate)” value is recorded as “high polyreactivity”.

Consider “QVQLVESGGGLVQAGGSLRLICAASGSTILVYAMGCYRQAPWKEMELVAAITQIDGSTYYADSVKGRFTISRDNAKNTVYLQMNSLKPEDTAVFYCAARFFWTYEYDYWGQATQVTVSS”, for which the “polyreactivity (PSR sort gate)” value was “low polyreactivity”.

As for “QVQLVESGGGLVQAGGSLRLICAASGSTLDKYAMGWDRPAPGKERELVAAISSSGGSTYYADSVKGRFTISRDNAKNTVYLQMNSLKPEDTAVYYCAARFFRGRYLDDYWGQGTQVTVSS”, the “polyreactivity (PSR sort gate)” value is recorded as “high polyreactivity”.

“QVQLVESGGGLVQAGGSLRLICAASGSTLYRYAMGWYRPAPGKERELVAAISSAGSTHYADSVKGRFTISRDNAKNTVYLQMNSLKPEDTAVYYCAAKRYLKYGYWGQGTQVTVSS”: the “polyreactivity (PSR sort gate)” value is on record as “high polyreactivity”.

“QVQLVESGGGLVQAGGSLRLICAASGSTYHYAMGWYRQAPGKERELVASITWRGDTTYYADSVKGRFTISRDNAKYNVYLQMNSLKPEDTAVYYCAAYHFSFGWIRVDYWGQGTQVTVSS”: the “polyreactivity (PSR sort gate)” value is “high polyreactivity”.

Values taken from the nanobody polyreactivity screen of Harvey et al. (2022).
